Consider 1 substance from US5683903.

The target in the assay is macrophage scavenger receptors on transfected 293 cells (human macrophage scavenger receptor type I or type II; the filing does not say which). The experiment in a line: radioligand binding/uptake on transfected HEK 293 cells; about 5 µg/ml, 5 hours at 37° C.

Turning to [125I]-acetylated LDL, the binding/uptake (µg/mg protein) is 1.75.
